In PMC5806898:

How the values were obtained:
CD8-CIMPR = CD8-CIMPR (UniProt P11717); test: co-IP; native immunoprecipitation with anti-CD8 and protein A-Sepharose from HeLa cells expressing CD8-CIMPR or CD8-sortilin (control: HeLa cells); western blot, bands quantified with IMAGEJ, 3 repeats
CD8-sortilin = CD8-sortilin (UniProt Q99523); test: as above

Chain of UniProt P11717 (P11717 whole entry): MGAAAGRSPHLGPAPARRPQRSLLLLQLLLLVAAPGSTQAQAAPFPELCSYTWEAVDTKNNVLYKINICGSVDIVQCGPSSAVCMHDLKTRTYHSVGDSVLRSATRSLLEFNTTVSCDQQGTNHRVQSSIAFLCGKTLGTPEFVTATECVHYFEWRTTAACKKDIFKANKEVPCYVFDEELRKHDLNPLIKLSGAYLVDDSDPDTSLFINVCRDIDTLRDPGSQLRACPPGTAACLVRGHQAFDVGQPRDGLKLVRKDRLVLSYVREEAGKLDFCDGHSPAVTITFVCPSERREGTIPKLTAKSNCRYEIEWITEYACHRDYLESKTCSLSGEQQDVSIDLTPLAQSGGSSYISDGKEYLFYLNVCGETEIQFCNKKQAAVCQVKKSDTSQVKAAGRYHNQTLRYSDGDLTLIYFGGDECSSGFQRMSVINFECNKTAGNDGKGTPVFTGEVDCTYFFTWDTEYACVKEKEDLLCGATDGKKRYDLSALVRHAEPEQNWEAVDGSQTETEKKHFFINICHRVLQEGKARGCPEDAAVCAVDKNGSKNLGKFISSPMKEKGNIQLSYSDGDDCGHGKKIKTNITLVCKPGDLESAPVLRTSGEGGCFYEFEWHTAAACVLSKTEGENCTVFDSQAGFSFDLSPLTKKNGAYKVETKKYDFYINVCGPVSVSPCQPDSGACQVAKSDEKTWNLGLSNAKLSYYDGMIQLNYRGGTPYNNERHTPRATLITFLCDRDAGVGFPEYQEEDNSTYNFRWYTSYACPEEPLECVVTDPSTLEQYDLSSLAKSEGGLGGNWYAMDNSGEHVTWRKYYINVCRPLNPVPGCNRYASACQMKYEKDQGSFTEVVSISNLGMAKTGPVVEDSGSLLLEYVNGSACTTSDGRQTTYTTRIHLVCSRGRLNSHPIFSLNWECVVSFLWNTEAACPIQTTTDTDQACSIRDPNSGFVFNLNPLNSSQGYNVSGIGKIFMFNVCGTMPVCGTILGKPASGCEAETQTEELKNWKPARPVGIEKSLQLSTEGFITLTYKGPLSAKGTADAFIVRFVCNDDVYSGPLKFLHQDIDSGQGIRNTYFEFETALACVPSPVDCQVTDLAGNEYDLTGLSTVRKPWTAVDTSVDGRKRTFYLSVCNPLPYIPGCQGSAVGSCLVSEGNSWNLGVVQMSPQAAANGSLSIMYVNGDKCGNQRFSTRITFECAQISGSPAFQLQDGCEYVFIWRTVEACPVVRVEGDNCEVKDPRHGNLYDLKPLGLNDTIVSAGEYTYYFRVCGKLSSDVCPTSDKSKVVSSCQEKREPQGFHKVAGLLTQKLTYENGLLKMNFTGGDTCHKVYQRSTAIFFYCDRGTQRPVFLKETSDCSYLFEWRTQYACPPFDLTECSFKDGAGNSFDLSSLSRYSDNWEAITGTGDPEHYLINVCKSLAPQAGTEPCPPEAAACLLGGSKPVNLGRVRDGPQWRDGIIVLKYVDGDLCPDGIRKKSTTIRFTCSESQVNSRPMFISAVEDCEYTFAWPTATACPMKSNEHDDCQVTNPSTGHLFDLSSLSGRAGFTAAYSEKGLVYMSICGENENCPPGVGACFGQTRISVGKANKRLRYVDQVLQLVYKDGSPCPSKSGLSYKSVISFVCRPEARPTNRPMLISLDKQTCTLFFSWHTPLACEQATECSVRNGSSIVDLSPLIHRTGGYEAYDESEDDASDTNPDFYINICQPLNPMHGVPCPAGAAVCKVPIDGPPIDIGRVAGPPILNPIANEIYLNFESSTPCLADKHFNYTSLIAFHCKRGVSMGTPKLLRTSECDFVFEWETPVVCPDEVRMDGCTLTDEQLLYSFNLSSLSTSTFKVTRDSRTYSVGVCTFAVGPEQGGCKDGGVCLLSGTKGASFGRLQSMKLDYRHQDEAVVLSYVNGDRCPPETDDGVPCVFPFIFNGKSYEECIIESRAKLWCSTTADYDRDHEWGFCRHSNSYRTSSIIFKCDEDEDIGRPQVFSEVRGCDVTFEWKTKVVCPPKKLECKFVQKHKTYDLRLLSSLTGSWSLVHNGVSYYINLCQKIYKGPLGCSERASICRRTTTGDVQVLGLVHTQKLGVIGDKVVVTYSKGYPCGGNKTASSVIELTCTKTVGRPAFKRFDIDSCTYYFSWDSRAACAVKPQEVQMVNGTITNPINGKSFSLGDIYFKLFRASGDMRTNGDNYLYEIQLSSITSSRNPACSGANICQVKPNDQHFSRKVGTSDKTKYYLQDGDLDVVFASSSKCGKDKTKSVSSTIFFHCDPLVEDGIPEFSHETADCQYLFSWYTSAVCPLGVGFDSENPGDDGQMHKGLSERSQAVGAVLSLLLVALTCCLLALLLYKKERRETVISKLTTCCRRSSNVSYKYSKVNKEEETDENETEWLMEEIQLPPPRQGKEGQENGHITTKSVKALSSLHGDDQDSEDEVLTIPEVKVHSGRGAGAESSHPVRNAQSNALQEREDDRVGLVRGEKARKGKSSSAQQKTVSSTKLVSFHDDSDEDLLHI

Molecule | percent of input pulled down (CD8-CIMPR) [%] | percent of input pulled down (CD8-sortilin) [%]
AP-1 γ (from UniProt O43747 1-822) (natural protein) | 0.1 | 0.05
SPG15 (from UniProt Q68DK2 1-2539) (natural protein) | 0.15 | 0.15
AP-5 ζ subunit (natural protein) MFSAGAESLLHQAREIQDEELKKFCSRICKLLQAEDLGPDTLDSLQRLFLIISATKYSRRLEKTCVDLLQATLGLPACPEQLQVLCAAILREMSPSDSLSLAWDHTQNSRQLSLVASVLLAQGDRNEEVRAVGQGVLRALESRQPEGPSLRHLLPVMAKVVVLSPGTLQEDQATLLSKRLVDWLRYASLQQGLPHSGGFFSTPRARQPGPVTEVDGAVATDFFTVLSSGHRFTDDQWLNVQAFSMLRAWLLHSGPEGPGTLDTDDRSEQEGSTLSVISATSSAGRLLPPRERLREVAFEYCQRLIEQSNRRALRKGDSDLQKACLVEAVLVLDVLCRQDPSFLYRSLSCLKALHGRVRGDPASVRVLLPLAHFFLSHGEAAAVDSEAVYQHLFTRIPVEQFHSPMLAFEFIQFCRDNLHLFSGHLSTLRLSFPNLFKFLAWNSPPLTSEFVALLPALVDAGTALEMLHALLDLPCLTAVLDLQLRSAPAASERPLWDTSLRAPSCLEAFRDPQFQGLFQYLLRPKASGATERLAPLHQLLQPMAGCARVAQCAQAVPTLLQAFFSAVTQVADGSLINQLALLLLGRSDSLYPAPGYAAGVHSVLSSQFLALCTLKPSLVVELARDLLEFLGSVNGLCSRASLVTSVVWAIGEYLSVTYDRRCTVEQINKFFEALEALLFEVTQCRPSAALPRCPPQVVTVLMTTLTKLASRSQDLIPRASLLLSKMRTLAHSPATSSTHSEEGAEAIRTRATELLTLLKMPSVAQFVLTPSTEVCSPRYHRDANTALPLALRTVSRLVEREAGLMPG | 0.08 | 0.23
